The source of these data is patent US20200129532A1 (SALK INSTITUTE FOR BIOLOGICAL STUDIES, published 2020).

For this test, the target named is endogenous ARID2 (293T cells) (UniProt Q68CP9 2-1835, limits assumed). The test is described as follows: immunoprecipitation of endogenous BAF/PBAF components in 293T cells.
Sequence of endogenous ARID2 (293T cells) (Q68CP9 2-1835 limits assumed): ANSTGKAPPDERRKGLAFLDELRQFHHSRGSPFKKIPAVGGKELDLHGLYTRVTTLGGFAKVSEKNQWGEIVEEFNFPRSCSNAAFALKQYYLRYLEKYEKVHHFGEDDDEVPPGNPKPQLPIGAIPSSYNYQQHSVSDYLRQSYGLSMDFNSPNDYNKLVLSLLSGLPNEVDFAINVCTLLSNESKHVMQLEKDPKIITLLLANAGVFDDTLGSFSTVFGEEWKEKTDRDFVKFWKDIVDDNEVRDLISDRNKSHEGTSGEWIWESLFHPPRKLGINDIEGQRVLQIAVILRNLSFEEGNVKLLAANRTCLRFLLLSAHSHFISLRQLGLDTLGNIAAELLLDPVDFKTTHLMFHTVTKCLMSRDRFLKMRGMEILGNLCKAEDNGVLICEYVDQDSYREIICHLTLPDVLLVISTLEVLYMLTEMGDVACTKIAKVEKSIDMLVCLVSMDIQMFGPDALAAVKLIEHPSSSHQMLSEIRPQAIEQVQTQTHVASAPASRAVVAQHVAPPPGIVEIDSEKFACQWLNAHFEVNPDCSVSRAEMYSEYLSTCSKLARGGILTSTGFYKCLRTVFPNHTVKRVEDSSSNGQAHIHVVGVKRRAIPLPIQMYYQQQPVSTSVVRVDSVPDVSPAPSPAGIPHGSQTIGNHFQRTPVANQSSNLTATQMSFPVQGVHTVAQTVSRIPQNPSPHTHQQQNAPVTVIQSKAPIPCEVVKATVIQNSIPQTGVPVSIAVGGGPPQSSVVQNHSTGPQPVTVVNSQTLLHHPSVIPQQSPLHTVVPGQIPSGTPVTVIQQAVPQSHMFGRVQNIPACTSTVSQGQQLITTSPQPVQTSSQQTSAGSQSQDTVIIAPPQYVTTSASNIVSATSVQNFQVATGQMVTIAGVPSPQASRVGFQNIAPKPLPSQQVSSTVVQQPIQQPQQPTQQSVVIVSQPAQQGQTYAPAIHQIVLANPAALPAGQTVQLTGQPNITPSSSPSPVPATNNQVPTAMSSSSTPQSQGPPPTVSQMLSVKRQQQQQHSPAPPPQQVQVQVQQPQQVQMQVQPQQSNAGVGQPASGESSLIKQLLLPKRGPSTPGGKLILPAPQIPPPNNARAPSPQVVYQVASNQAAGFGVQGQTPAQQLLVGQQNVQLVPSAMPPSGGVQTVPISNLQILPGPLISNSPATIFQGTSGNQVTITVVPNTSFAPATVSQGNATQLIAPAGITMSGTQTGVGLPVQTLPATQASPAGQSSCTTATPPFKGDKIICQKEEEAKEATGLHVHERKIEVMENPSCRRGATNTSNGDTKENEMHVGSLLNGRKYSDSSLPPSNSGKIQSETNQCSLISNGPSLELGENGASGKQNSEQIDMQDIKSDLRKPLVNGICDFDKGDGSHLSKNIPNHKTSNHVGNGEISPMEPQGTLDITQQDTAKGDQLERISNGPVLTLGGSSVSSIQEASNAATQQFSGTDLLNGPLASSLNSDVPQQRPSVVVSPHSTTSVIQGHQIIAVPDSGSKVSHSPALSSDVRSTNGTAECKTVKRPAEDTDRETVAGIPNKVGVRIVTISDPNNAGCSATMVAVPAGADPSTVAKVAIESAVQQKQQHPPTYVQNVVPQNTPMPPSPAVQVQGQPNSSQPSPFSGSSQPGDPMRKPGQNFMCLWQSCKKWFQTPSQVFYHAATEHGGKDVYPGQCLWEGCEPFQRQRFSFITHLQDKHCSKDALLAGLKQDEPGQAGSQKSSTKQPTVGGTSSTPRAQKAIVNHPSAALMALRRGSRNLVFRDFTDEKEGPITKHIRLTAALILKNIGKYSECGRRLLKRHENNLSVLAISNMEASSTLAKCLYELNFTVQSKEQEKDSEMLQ

Method: For other immunoprecipitations, primary antibodies were incubated with lysates for 2 hr followed by Protein A magnetic beads (Life Technologies, 10001D).

B1: endogenous bromodomain-containing protein 9 (BRD9) (other, human, UniProt Q9H8M2 1-597, looked up)
chain: MGKKHKKHKAEWRSSYEDYADKPLEKPLKLVLKVGGSEVTELSGSGHDSSYYDDRSDHERERHKEKKKKKKKKSEKEKHLDDEERRKRKEEKKRKREREHCDTEGEADDFDPGKKVEVEPPPDRPVRACRTQPAENESTPIQQLLEHFLRQLQRKDPHGFFAFPVTDAIAPGYSMIIKHPMDFGTMKDKIVANEYKSVTEFKADFKLMCDNAMTYNRPDTVYYKLAKKILHAGFKMMSKQAALLGNEDTAVEEPVPEVVPVQVETAKKSKKPSREVISCMFEPEGNACSLTDSTAEEHVLALVEHAADEARDRINRFLPGGKMGYLKRNGDGSLLYSVVNTAEPDADEEETHPVDLSSLSSKLLPGFTTLGFKDERRNKVTFLSSATTALSMQNNSVFGDLKSDEMELLYSAYGDETGVQCALSLQEFVKDAGSYSKKVVDDLLDQITGGDHSRTLFQLKQRRNVPMKPPDEAKVGDTLGDSSSSVLEFMSMKSYPDVSVDISMLSSLGKVKKELDPDDSHLNLDETTKLLQDLHEAQAERGGSRPSSNLSSLSNASERDQHHLGSPSRLSVGEQPDVTHDPYEFLQSPEPAASAKT
notes: Endogenous protein in cell lysates; also called bromodomain-containing factor 9
With B1, the binding result is “no binding”.
